# From IntAct's records for PubMed 17159996
# B1: Tyrosine-protein phosphatase non-receptor type 1 (Homo sapiens), P18031 (parent)
# chain: MEMEKEFEQIDKSGSWAAIYQDIRHEASDFPCRVAKLPKNKNRNRYRDVSPFDHSRIKLHQEDNDYINASLIKMEEAQRSYILTQGPLPNTCGHFWEMVWEQKSRGVVMLNRVMEKGSLKCAQYWPQKEEKEMIFEDTNLKLTLISEDIKSYYTVRQLELENLTTQETREILHFHYTTWPDFGVPESPASFLNFLFKVRESGSLSPEHGPVVVHCSAGIGRSGTFCLADTCLLLMDKRKDPSSVDIKKVLLEMRKFRMGLIQTADQLRFSYLAVIEGAKFIMGDSSVQDQWKELSHEDLEPPPEHIPPPPRPPKRILEPHNGKCREFFPNHQWVKEETQEDKDCPIKEEKGSPLNAAPYGIESMSQDTEVRSRVVGGSLRGAQAASPAKGEPSLPEKDEDHALSYWKPFLVNMCVATVLTAGAYLCYRFLFNSNT
# Variants of: B1
# Conditions: with insr_human INSR
row,effect of a mutation on the interaction,Variant
1,decreasing interaction,K73R;K335R;K347R;K389R
